These results are taken from patent publication US20030032157A1, “Polypeptides interactive with Bcl-XL” (priority 2001, published 2003).

Sequences and labels used below:
B1: SEQ ID NO 31 (peptide)
chain: MRDLPGHYYETLKFLVGHLKTIADHR
notes: mRNA display clone from a hypothetical or unknown polypeptide
B2: SEQ ID NO 32 (peptide)
chain: CGGRMEDIPCSRVGHIYRKYVPYKVPAGVSLARNLKRVADWM
notes: as for B1
B3: SEQ ID NO 29 (peptide)
chain: AGVFSAEPSPFPQTRRSMVFARHLREVGDEFRSRHLNSTDDADE
notes: as for B1
B4: SEQ ID NO 30 (peptide)
chain: GLKLATVAASMDRVPKVTPSSAISSIARENHEPERLGLNGIAETT
notes: as for B1
B5: SEQ ID NO 228 (peptide)
chain: TLRHWGLQFNTRFGV
notes: Second selection; clone from a hypothetical or unknown polypeptide
B6: SEQ ID NO 227 (peptide)
chain: MGDVVGFIDELEGAVSDLHRAL
notes: as for B5
B7: SEQ ID NO 224 (peptide)
chain: KYQQLFEDIRW
notes: Second selection; clone from a known polypeptide
B8: SEQ ID NO 6 (peptide)
chain: GGESDTDPHFQDALMQLAKAVASAAAALVLKAKSVAQR
notes: mRNA display clone from a known polypeptide
B9: SEQ ID NO 33 (peptide)
chain: ALSWIEMDTEMEMLLARFRRTPGDLHLDHSVHLCAHP
notes: as for B1
B10: SEQ ID NO 12 (peptide)
chain: MKWDTDNTLGTEISWENKLAEGLKLTLDTIFVHHVLHAPH
notes: as for B8
B11: proline/glutamine rich splicing factor cluster polypeptide (peptide)
chain: RGLWVDRVLEEWGLEPRQ
notes: Selected clone translated from the incorrect reading frame of the parent mRNA; not further characterized
B12: clone x42 (cDNA FLJ23277, Clone HEP03322) (peptide)
chain: NGNLFASFIADS
notes: as for B1
B13: Novel protein D, clone T25 (peptide)
peptide: GTRISDMLKLIADTWQRNCCPA-{FLAG‑M2 epitope}
modifications: cysteine pairing not given here; also: 35S-Met labelled in vitro translation product
B14: Bcl-2 related protein BPR, clone Y75 (peptide)
peptide: TGKEAILRRLVALLEEEAEVINQKLASDPALRSKLVRLSSDSFAHL
notes: also called Bcl-2 related proline-rich protein BPR
B15: Talin (splice variant), clone X56 (peptide)
peptide: GGESDTDPHFQDALMQLAKAVASAAAALVLKAKSVAQR-{FLAG‑M2 epitope}
modifications: also: 35S-Met labelled in vitro translation product
notes: fragment limits not in text; also called selected Talin fragment

Where no end group is shown, it is not given here.

The target in one assay is T1, BH3 domain binding site on Bcl-XL (Homo sapiens, UniProt Q07817).
T1 construct: made in house; host or cells: E. coli BL21 (DE3) pLysS
T1 sequence (Q07817 1-211): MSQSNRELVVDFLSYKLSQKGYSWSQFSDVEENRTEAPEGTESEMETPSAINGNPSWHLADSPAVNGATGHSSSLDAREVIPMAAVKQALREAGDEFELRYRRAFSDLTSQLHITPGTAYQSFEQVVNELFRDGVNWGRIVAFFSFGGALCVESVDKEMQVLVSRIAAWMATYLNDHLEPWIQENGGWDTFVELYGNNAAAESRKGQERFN
Briefly: Competition assay with Bak BH3 domain peptide in the Bcl-XL binding assay. Conditions: 20 μM Bak BH3 competitor (SEQ ID NO: 152); 100 μM for some polypeptides. The procedure: (§1) Only three of the selected proteins (Bim, Bak, and Bax) were previously known to contain a BH3 domain. In order to determine if the other proteins bound to the BH3 domain binding site on Bcl-XL, a competition assay was performed. The Bak BH3 domain peptide used as a positive control was prepared by chemical synthesis and used to compete with individual Bcl-XL-binding polypeptides in a Bcl-XL binding assay. […] At a fixed concentration of immobilized Bcl-XL, the Bak BH3 domain-containing peptide […] (SEQ ID NO: 152), also containing a FLAG-M2 epitope, was added at the indicated concentration along with a trace amount of a selected Talin fragment. After binding for 1 hour, the unbound material was removed and the bound protein was quantitated. The bound protein was assayed by scintillation counting, normalized to that bound in the absence of competitor, and plotted versus competitor concentration.
A competition assay was performed for each of the selected Bcl-XL-binding polypeptides using 20 μM Bak BH3 competitor based on the titration shown in FIG. 6. Due to poor competition with the Bcl-XL-binding polypeptides having the lowest Kd values (as determined above) a second competition was performed for some of these polypeptides using 100 μM competitor (FIG. 3A).
Regarding “w75: selected Bcl-XL-binding polypeptide, SEQ ID NO: 37 (RTLQPRLLQNQQQHLPALPIWFLLQWLRLHPL; listed as Homo sapiens)”, the “competition by Bak BH3 domain (BakBH3 effect), bound normalized to reaction without competitor” value was “not competed at all”. Still for that read-out and setting: the value for “t53: selected Bcl-XL-binding polypeptide, SEQ ID NO: 25 (LDPVKDVLILSALRRMLWAADDFLEDLPFEQIG; listed as Homo sapiens)” was “not competed at all”; that for “x42: selected polypeptide, SEQ ID NO: 35; cDNA FLJ23277, Clone HEP03322 (Table 1) (NGNLFASFIADS)” was “not competed at all”.

For another assay, the target named is T2, human Bcl-XL-GST fusion protein (human, UniProt P08515 1-218 = GST; Q07817 1-211).
T2 construct: Made in E. coli, immobilized on glutathione Sepharose beads; whole entry named; also called Bcl-XL-glutathione S-transferase (GST) fusion protein; GST-BCL-XL
T2 sequence (P08515 1-218, tags or fused parts left off): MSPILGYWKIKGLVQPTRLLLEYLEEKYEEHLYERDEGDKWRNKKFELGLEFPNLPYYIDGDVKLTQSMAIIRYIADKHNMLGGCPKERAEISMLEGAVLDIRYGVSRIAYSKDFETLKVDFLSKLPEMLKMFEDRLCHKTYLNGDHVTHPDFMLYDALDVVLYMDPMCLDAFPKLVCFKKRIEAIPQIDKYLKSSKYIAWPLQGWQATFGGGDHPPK
Briefly: mRNA display selection on immobilized Bcl-XL-GST.
Settings: not given
How it is done: (§2) Detection of a polypeptide binding to a Bcl-XL-glutathione S-transferase (GST) fusion protein was carried out as follows. Twenty microliters of glutathione Sepharose 4B slurry (AP Biotech) was aliquoted to a microcentrifuge tube and washed with PBS. The Bcl-XL-GST fusion protein (60 μg), prepared as describe above, was added and allowed to bind to the Sepharose beads for 1 hr at 4° C. The beads were then re-washed in selection buffer (50 mM Tris-HCL pH 7.5, 150 mM KCl, 0.05% Triton X-100, 0.5 mg/ml BSA, and 0.1 mg/ml salmon sperm DNA). The Bcl-XL-GST beads were resuspended in 100 μl of selection buffer (approximately 11.5 μM Bcl-XL) and ³⁵S-labeled mRNA display construct or free peptide was added (approximately 10-60 nM) and incubated on a rotator for 1 hr at 4° C. The reaction was then transferred to a microcentrifuge column (BioRad) and unbound mRNA display constructs or free peptides were removed by a 10 sec spin at 1,000 rpm. The Sepharose beads were then washed three times with 500 μl of selection buffer. The extent of binding between the Bcl-XL-GST fusion protein and the mRNA display constructs or free peptides was determined by scintillation counting each fraction, including the recovered beads.
A human Bcl-XL-GST fusion protein was immobilized on Sepharose beads as described above for the binding assay and incubated with the mRNA display library. For the first round of selection, the input was approximately 0.06 pmol of each of the four source labeled libraries from human tissues (kidney, liver, bone marrow, and brain), which were mixed prior to selection. For subsequent rounds of selection, the input of each of the four source labeled libraries ranged from 0.25 to 0.92 pmol in total. After washing the beads of any unbound nucleic acid-protein fusion library members, the cDNA strand of the bound fusions were recovered in three elutions with 100 μl of 0.1N KOH. Eluates were subsequently neutralized by the addition of 2 μl of 1N Tris-HCL pH 7 and 8 μl of 1N HCL. A small scale PCR optimization was performed with the eluate to determine the number of cycles required to produce a strong signal without overamplification (typically 18-28 cycles). The library was then regenerated by PCR using the remainder of the eluate.
Take B1: the binding result is “binds”. Take B2: the binding result was “binds”.

Regarding B3, the binding result is listed as “binds”. On the same count and under the same terms, the value for B4 was “binds”.

The target in the next assay is T2, human Bcl-XL-GST fusion protein. The assay can be described thus: second mRNA display selection on immobilized Bcl-XL-GST.
Settings: not given
Consider B5, for which the binding result was “binds”. The same measure, in the same setting: the value for TLREIGDLYLTSILGRR (Second selection) [SEQ ID NO 230] was “binds”; that for B6 was “binds”; that for SRREEAWDALFRGI (Second selection) [SEQ ID NO 229] was “binds”. In the case of B7, the binding result is listed as “binds”.

The next assay has the same target. Briefly: free peptide on immobilized Bcl-XL-GST with Bak BH3 competitor.
Settings: not given
The procedure: as §1
A competition assay was performed for each of the selected Bcl-XL-binding polypeptides using 20 μM Bak BH3 competitor based on the titration shown in FIG. 6.
For the molecule B8, the binding result was “binds”.

As for B9, the binding result is given as “binds”. The same measure, in the same setting: the value for B10 was “binds”.

The target is the same in a further assay. The assay can be described thus: mRNA display selection on immobilized Bcl-XL-GST; cluster found among sequenced clones.
Settings: not given
In the case of B11, the binding result is recorded as “binds”. On to B12, for which the binding result is reported as “binds”.

The next assay shares this target. Briefly: 35S-labeled free peptide on Bcl-XL-GST beads, target concentration varied, scintillation counting; relative Kd.
Settings: not given
How it is done:
as §2
Purified radioactively labeled protein from the individual clones was incubated with immobilized Bcl-XL-GST for one hour and, after washing, the amount bound was determined by scintillation counting. The binding at each concentration was normalized to that at the highest concentration and plotted versus concentration. FIG. 5 is a representational plot of the results of this binding assay. A selected Bak fragment ([…]; SEQ ID NO: 152), containing a FLAG-M2 epitope, was synthetically produced as a free protein and used in a binding assay in which the concentration of immobilized Bcl-XL-GST was varied from 11 nM to 28 μM. The amount of peptide bound to Bcl-XL was determined by scintillation counting and normalized to that bound at the highest concentration. Normalized binding was then plotted versus Bcl-XL concentration and fit to a binding curve using nonlinear regression. […] However, only binding curves that gave a high correlation coefficient ® value) were used to determine an affinity.
As to QRGMLYYQTEKYDLAIKDLKEALIQLRGNN (fragment limits not in text) [Neutrophil cytosolic factor 2, clone T95], the Kd (usually a measure of binding affinity in units of concentration) came out at 4.16 nM.

With B13, the Kd is 1610 nM. On the same count and under the same terms, to KLSECLKRIGDELDSNMELQRMIAAVDTDSPR (peptide, UniProt Q07812 58-89, looked up) [Bax, clone C49] belongs 760 nM; to ATRQALNEISARHSGIQQLERSIRELHDIFTFL [Syntaxin 4A, clone U58], 640 nM; to MKWDTDNTLGTEISWENKLAEGLKLTLDTIFVHHVLHAPH-{FLAG‑M2 epitope} (also: 35S-Met labelled in vitro translation product) [Voltage dependent anion channel 3, clone W06], 1120 nM. On the same count and under the same terms, the value for IAQATKATIDKWNCIKLKIFYTSKKEAS-{FLAG‑M2 epitope} (also: 35S-Met labelled in vitro translation product) [Novel protein I, clone C21] was 70 nM; that for GTRQDRMFETMAIEIEQLLARLTGVNDKMAEYTNA [Golgi SNAP receptor complex member 1, clone V06] was 467 nM; that for MFSDIYGIREIADGLCLEVEGKMVSRPE [Tumor protein HDCMB21P, clone V50] was 690 nM.

Molecule ASMRQAEPADMRPEIWIAQELRRIGDEFNAYYARE (fragment limits not in text) [Bim, clone T44] had a Kd of 2 nM. The same measure, in the same setting: the value for AVQEDPVQREIHQDWANREYIEIITSSIKKIAD (also called HSCP300) [HSPC300, clone C68] was 580 nM; that for B14 was 420 nM; that for GQVGRQLAIIGDDINRRK [Bak, clone C32] was 402 nM. The same measure, in the same setting: the value for FWLEERDFEAGVFELEAIVNSIKRS [Toll-like receptor 3, clone U15] was 781 nM; that for B15 was 93 nM.
